Test results published in the supplement of paper PMC7877785.
± gives the uncertainty stated by the source.

Experiment: self-splicing fitness, log relative to wild type (ln ratio); higher = more splicing; Tetrahymena group I intron in knt gene, E. coli kanamycin selection, DiMSum; sequences stand for … in CUCUCU…GGAGGGAAAAGUUAUCAGGCAUGCACCUGGUAGCUAGUCUUUAAACCAAUAGAUUGCAUCGGUUUAAAAGGCAAGACCGUCAAAUUGCGGGAAAGGGGUCAACAGCCGUUCAGUACCAAGUCUCAGGGGAAACUUUGAGAUGGCCUUGCAAAGGGUAUGGUAAUAAGCUGACGGACAUGGUCCUAACCACGCAGCCAAGUCCUAAGUCAACAGAUCUUCUGUUGAUAUGGAUGCAGUUCACAGACUAAAUGUCGGUCGGGGAAGAUGUAUUCUUCUCAUAAGAUAUAGUCGGACCUCUCCUUAAUGGGAGCUAGCGGAUGAAGUGAUGCAACACUGGAGCCGCUGGGAACUAAUUUGUAUGCGAAAGUAUAUUGAUUAGUUUUGGAGUACUCGUGGUCG
Outline: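 Fitness was computed with DiMSum as the error-weighted combination of replicate fold changes, kanamycin versus none, each normalised to wild type. The library randomised all eight intron nucleotides of the P1ex region, with the intron placed in the knt kanamycin-resistance gene on pET-22b(+) in E. coli BL21(DE3). Six replicate transformations were grown overnight at 37°C or 30°C on LB agar with or without 25 μg/mL kanamycin, plus 100 μg/mL carbenicillin, 50 μM IPTG and 0.2% rhamnose. Pooled colonies were amplicon-sequenced on an Illumina HiSeq 2500.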

Row | Sequence | self-splicing fitness (ln) (30 °C) | self-splicing fitness (ln) (37 °C)
1 | CGCCAGCAAUAUUACGGGAA | -2.84 ± 0.12 | -1.64 ± 0.1
2 | GAGAAGCAAUAUUACGCACU | -1.73 ± 0.14 | -0.249 ± 0.16
3 | GUGAAGCAAUAUUACGCGGG | -2.8 ± 0.19 | -1.55 ± 0.2
4 | UACCAGCAAUAUUACGCACG | 0.061 ± 0.066 | -0.903 ± 0.066
5 | GCAGAGCAAUAUUACGACAG | -3.01 ± 0.15 | -2.74 ± 0.26
6 | CGGUAGCAAUAUUACGUUCG | -2.19 ± 0.14 | -1.99 ± 0.24
7 | AGCUAGCAAUAUUACGAACU | -0.899 ± 0.12 | 0.179 ± 0.16
8 | CGAGAGCAAUAUUACGUAGA | -1.62 ± 0.2 | -1.68 ± 0.3
9 | UAAGAGCAAUAUUACGAACA | -2.71 ± 0.42 | -1.26 ± 0.27
10 | UACGAGCAAUAUUACGUGCG | -3.07 ± 0.15 | -1.97 ± 0.18
11 | AAAUAGCAAUAUUACGUCGA | -1.78 ± 0.078 | -0.255 ± 0.076
12 | UAUAAGCAAUAUUACGGUAC | -3.46 ± 0.3 | -2.23 ± 0.29
13 | AGAGAGCAAUAUUACGGGGA | -2.46 ± 0.25 | -1.84 ± 0.28
14 | UUUUAGCAAUAUUACGGUUA | -1.54 ± 0.2 | 0.105 ± 0.13
15 | AUGCAGCAAUAUUACGCAAA | -2.6 ± 0.13 | -0.0469 ± 0.14
16 | UGCCAGCAAUAUUACGCGGA | -2.24 ± 0.1 | -1.32 ± 0.094
17 | UCGAAGCAAUAUUACGUCCA | -1.08 ± 0.13 | -0.411 ± 0.14

Row | Sequence | self-splicing fitness (ln) (30 °C) | self-splicing fitness (ln) (37 °C)
18 | GGGCAGCAAUAUUACGGUAG | -3.2 ± 0.19 | -1.34 ± 0.19
19 | AGGUAGCAAUAUUACGAAUG | -3.277 ± 0.026 | -1.83 ± 0.037
20 | GUGAAGCAAUAUUACGGCGG | -1.24 ± 0.13 | -1.26 ± 0.14
21 | GGUGAGCAAUAUUACGCAAU | -3.03 ± 0.32 | -1.94 ± 0.43
22 | UUUUAGCAAUAUUACGGACA | -1.41 ± 0.18 | -0.668 ± 0.17
23 | AAAGAGCAAUAUUACGACUC | -1.4 ± 0.071 | -0.537 ± 0.1
24 | CCUAAGCAAUAUUACGAUUA | -3.04 ± 0.19 | -2.62 ± 0.22
25 | CUAUAGCAAUAUUACGAAUU | -2.02 ± 0.39 | -2.26 ± 0.46
26 | CCUAAGCAAUAUUACGACAG | -0.604 ± 0.081 | -1 ± 0.11
27 | GACAAGCAAUAUUACGACAA | -0.668 ± 0.11 | -0.951 ± 0.1
28 | GAAAAGCAAUAUUACGCAGC | -2.9 ± 0.17 | -1.74 ± 0.19
29 | ACACAGCAAUAUUACGCAAU | -3.32 ± 0.15 | -1.94 ± 0.15
30 | AAAGAGCAAUAUUACGCCAG | -3.87 ± 0.35 | -0.837 ± 0.21
31 | UUGAAGCAAUAUUACGAUUC | -2.33 ± 0.18 | -2.3 ± 0.28
32 | CGCUAGCAAUAUUACGUACA | -2.62 ± 0.14 | -1.35 ± 0.15
33 | GCAGAGCAAUAUUACGCCUG |  | -1.33 ± 0.47
